Residue numbers refer to the chain shown, from its start.
B1: LG9112 monoclonal antibody (antibody, V domains shown)
VH: QMQLKESGPGLVQPSQTLSLTCAVSGFSLPTSSVSWIRQSPGKGLEWMGVIWSNGNTDYSSRFKSRLSISRDTAKSQVFLKMNSLQAEDTAMYFCARNFRNDPGVMDAWGQGASVTVSS
VL: NIVMTQSPKSMSISVGDRVTMNCKASQNVGNNVAWYQQKPGLSPKLLISYASSRHTGVPDRFTGRGSGADFTLTINGVQAEDAAFYYCQRVYKSPYTFGGGTKLELKR
notes: Rat monoclonal antibody from a hybridoma, purified from ascites with Protein G and detected with anti-rat IgG; also called anti-LAT1/CD98 monoclonal antibody
B2: LG9111 monoclonal antibody (antibody, V domains shown)
VH: B1 VH with M2L, A23T, S40P, R62A, F63I, A74S, A87T, M92R
VL: NIVMTQSPRSMSLSGGDRVTMNCRASQNVGNNVAWYQQRPGQSPKLLISYASNRNTGVPGRFTGSGSGTDFTLTISSVQAEDAAFYYCQRIYKSPYTFGGGTKLELKR
notes: as for B1
B3: LG9114 monoclonal antibody (antibody, V domains shown)
VH: B1 VH with F63I, A74S, A87T, D102N
VL: B1 VL with S49Y, R65S, G77S
notes: as for B1
B4: LG9113 monoclonal antibody (antibody, V domains shown)
VH: B1 VH with A87T
VL: B1 VL with N28T
notes: as for B1

Target: T1, human LAT1/CD98 complex (human, UniProt Q01650 1-507; P08195 2-529)
T1 construct: whole, on cells; Disulfide-bonded heterodimer, endogenous on human tumor cell lines (HCT116, NCI-H1944, A549, HeLa); No purified or transfected antigen was used; also called LAT1/CD98 complex protein; LAT1/4F2hc
Experiment: flow cytometry on human tumor cell lines, antibody prepared at 40 µg/mL; reference LGtra01-01
Procedure: Using four types of human tumor cell lines, the anti-LAT1/CD98 monoclonal antibodies were measured for their binding ability by FCM analysis. The human tumor cell lines were each adjusted with PBS to 1×10⁵ cells/well and dispensed into tubes in 50 μL volumes. To this cell suspension, 50 μL of each monoclonal antibody prepared at 40 μg/mL was added and reacted at 4° C. for 45 minutes. After washing three times by addition of 0.1% BSA-PBS (100 μL) and the subsequent centrifugation at 500 g for 3 minutes at 4° C., the cell pellets were each supplemented with 50 μL of 200-fold diluted PE-labeled anti-rat IgG (Jackson Immuno Research) and reacted under light-shielded conditions at 4° C. for 45 minutes. After washing three times by addition of 0.1% BSA-PBS (100 μL) and the subsequent centrifugation at 500 g for 3 minutes at 4° C., the cells were suspended in PBS (500 μL) and then transferred to FCM tubes. PI (100 μL) was added immediately before measurement to remove dead cells, followed by measurement with a FACS calibur (Becton Dickinson).

T1 sequence (Q01650 whole entry, chain 1 of 2): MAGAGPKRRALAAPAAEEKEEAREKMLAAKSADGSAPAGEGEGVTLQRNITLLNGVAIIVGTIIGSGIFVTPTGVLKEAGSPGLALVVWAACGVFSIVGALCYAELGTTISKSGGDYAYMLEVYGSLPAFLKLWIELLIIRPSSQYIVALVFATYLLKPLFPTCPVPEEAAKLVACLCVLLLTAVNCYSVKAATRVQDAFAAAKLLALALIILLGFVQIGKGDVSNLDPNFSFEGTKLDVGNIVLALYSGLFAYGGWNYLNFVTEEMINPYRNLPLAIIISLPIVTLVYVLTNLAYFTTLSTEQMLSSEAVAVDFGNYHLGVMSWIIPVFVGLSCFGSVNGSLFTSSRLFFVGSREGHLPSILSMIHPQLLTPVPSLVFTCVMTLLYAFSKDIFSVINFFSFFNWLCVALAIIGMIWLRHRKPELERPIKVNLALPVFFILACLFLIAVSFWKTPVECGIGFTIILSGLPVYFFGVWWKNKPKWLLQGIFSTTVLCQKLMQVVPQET
T1 sequence (P08195 103-630, chain 2 of 2): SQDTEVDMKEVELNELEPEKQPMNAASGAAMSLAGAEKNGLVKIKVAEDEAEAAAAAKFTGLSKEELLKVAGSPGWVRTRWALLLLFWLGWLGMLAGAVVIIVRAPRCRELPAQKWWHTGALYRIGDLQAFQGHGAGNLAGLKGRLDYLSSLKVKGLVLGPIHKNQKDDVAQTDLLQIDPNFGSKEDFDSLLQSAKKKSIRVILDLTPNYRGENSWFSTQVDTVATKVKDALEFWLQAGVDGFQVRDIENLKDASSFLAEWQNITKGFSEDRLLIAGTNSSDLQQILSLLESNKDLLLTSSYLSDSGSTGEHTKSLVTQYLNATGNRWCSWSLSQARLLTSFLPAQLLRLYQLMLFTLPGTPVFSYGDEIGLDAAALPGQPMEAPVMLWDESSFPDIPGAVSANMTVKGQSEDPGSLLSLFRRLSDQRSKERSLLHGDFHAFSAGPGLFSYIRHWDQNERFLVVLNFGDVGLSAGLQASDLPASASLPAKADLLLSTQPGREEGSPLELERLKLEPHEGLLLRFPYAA

Fold higher binding activity than LGtra01-01 monoclonal antibody, ≥ 10 fold:
B1
B2
B3
B4

From patent US20150147278A1 (KINKI UNIVERSITY, published 2015)
